Experimental data taken from PMC8372784, “AMOTL2 mono-ubiquitination by WWP1 promotes contact inhibition by facilitating LATS activation” (Life Science Alliance, 2021).

Target: T1, GST-WWP1 (WW-domain containing protein 1) (UniProt Q9H0M0 1-922)
T1 construct: WWP1, HECT-type E3 ligase, full length; source: baculovirus-infected Sf9 insect cells, purified
Test: pull-down; GST or GST-WWP1 (1 μg) immobilised on glutathione-Sepharose 4B, 200 ng AMOTL2-V5; 20 mM Tris-Cl pH 7.9, 150 mM KCl, 0.2 mM EDTA, 20% glycerol, 0.05% NP-40, 0.2 mg/ml BSA; 4°C, 3 h; Western blot
Conditions: both partners purified

B1: AMOTL2-V5 (angiomotin-like 2) (natural protein, UniProt Q9Y2J4 1-779, looked up)
chain: MRTLEDSSGTVLHRLIQEQLRYGNLTETRTLLAIQQQALRGGAGTGGTGSPQASLEILAPEDSQVLQQATRQEPQGQEHQGGENHLAENTLYRLCPQPSKGEELPTYEEAKAHSQYYAAQQAGTRPHAGDRDPRGAPGGSRRQDEALRELRHGHVRSLSERLLQLSLERNGARAPSHMSSSHSFPQLARNQQGPPLRGPPAEGPESRGPPPQYPHVVLAHETTTAVTDPRYRARGSPHFQHAEVRILQAQVPPVFLQQQQQYQYLQQSQEHPPPPHPAALGHGPLSSLSPPAVEGPVSAQASSATSGSAHLAQMEAVLRENARLQRDNERLQRELESSAEKAGRIEKLESEIQRLSEAHESLTRASSKREALEKTMRNKMDSEMRRLQDFNRDLRERLESANRRLASKTQEAQAGSQDMVAKLLAQSYEQQQEQEKLEREMALLRGAIEDQRRRAELLEQALGNAQGRAARAEEELRKKQAYVEKVERLQQALGQLQAACEKREQLELRLRTRLEQELKALRAQQRQAGAPGGSSGSGGSPELSALRLSEQLREKEEQILALEADMTKWEQKYLEERAMRQFAMDAAATAAAQRDTTLIRHSPQPSPSSSFNEGLLTGGHRHQEMESRLKVLHAQILEKDAVIKVLQQRSRRDPGKAIQGSLRPAKSVPSVFAAAAAGTQGWQGLSSSERQTADAPARLTTDRAPTEEPVVTAPPAAHAKHGSRDGSTQTEGPPDSTSTCLPPEPDSLLGCSSSQRAASLDSVATSRVQDLSDMVEILI
notes: AMOTL2 (angiomotin-like 2), full length; The legends print AMOTL-V5; the text prints AMOTL2-V5; also called AMOTL-V5; source: baculovirus-infected Sf9 insect cells, purified
  binding result: binds
